Where “and” joins values, the source holds several entries; their conditions need not be identical. Identical values can stand only once. Each block holds one binder with its values, some of them ahead of it.
B2: canine IL-4 receptor alpha chain (full length) expressed on the surface of CHO DG44 cells (receptor)
chain: VKVLHEPSCFSDYISTSVCQWKMDHPTNCSAELRLSYQLDFMGSENHTCVPENREDSVCVCSMPIDDAVEADVYQLDLWAGQQLLWSGSFQPSKHVKPRTPGNLTVHPNISHTWLLMWTNPYPTENHLHSELTYMVNVSNDNDPEDFKVYNVTYMGPTLRLAASTLKSGASYSARVRAWAQTYNSTWSDWSPSTTWLNYYEPWEQHLPLGVSISCLVILAICLSCYFSIIKIKKGWWDQIPNPAHSPLVAIVIQDSQVSLWGKRSRGQEPAKCPHWKTCLTKLLPCLLEHGLGREEESPKTAKNGPLQGPGKPAWCPVEVSKTILWPESISVVQCVELSEAPVDNEEEEEVEEDKRSLCPSLEGSGGSFQEGREGIVARLTESLFLDLLGGENGGFCPQGLEESCLPPPSGSVGAQMPWAQFPRAGPRAAPEGPEQPRRPESALQASPTQSAGSSAFPEPPPVVTDNPAYRSFGSFLGQSSDPGDGDSDPELADRPGEADPGIPSAPQPPEPPAALQPEPESWEQILRQSVLQHRAAPAPGPGPGSGYREFTCAVKQGSAPDAGGPGFGPSGEAGYKAFCSLLPGGATCPGTSGGEAGSGEGGYKPFQSLTPGCPGAPTPVPVPLFTFGLDTEPPGSPQDSLGAGSSPEHLGVEPAGKEEDSRKTLLAPEQATDPLRDDLASSIVYSALTCHLCGHLKQWHDQEERGKAHIVPSPCCGCCCGDRSSLLLSPLRAPNVLPGGVLLEASLSPASLVPSGVSKEGKSSPFSQPASSSAQSSSQTPKKLAVLSTEPTCMSAS
notes: also called cIL-4Rα; CHO-cIL-4Rα
B3: canine IL-4 (R&D system, cat #754-CL/CF), biotinylated (ligand, UniProt O77762 25-132, looked up)
chain: HNFNITIKEIIKMLNILTARNDSCMELTVKDVFTAPKNTSDKEIFCRAATVLRQIYTHNCSNRYLRGLYRNLSSMANKTCSMNEIKKSTLKDFLERLKVIMQKKYYRH
modifications: biotinylated with Lightning-Link Biotin Conjugation Kit Type A
notes: Purchased protein; also called canine interleukin-4; biotinylated canine IL-4

Columns and labels:
[1] = molecular target: B2; test: flow cytometry ligand blockade on CHO-cIL-4Rα cells; competitor biotinylated canine IL-4 at 0.32 µg/mL; one of two separate studies
Method: Procedure: [0247] 1. CHO-DH44-canIL-4Rα cell grown to 2-4 ×10⁶ cells/mL with more than 96% viability. [0248] 2. The cells were spun down, the supernatant discarded, and the cells were suspended in FACS buffer to 2×10⁷ cells/mL. [0249] 3. The cells were distributed into a U-shape 96-well plate, 50 μl each well. [0250] 4. The anti-canine IL-4Rα mAbs in FACS buffer was diluted three-fold on a 96-well plate from top down to bottom well, starting at 50 μg/mL. [0251] 5. 50 μl of each diluted Ab was transferred into the cell plate and then incubated on ice for 30 min. [0252] 6. The cells were washed twice with FACS buffer. [0253] 7. The cells were resuspended into 100 μl of biotinylated canine IL-4 at 0.32 μg/mL in FACS buffer and incubated on ice for 30 min. [0254] 8. The cells were washed twice with FACS buffer. [0255] 9. The cells were responded into 100 μl of R-phycoerythin conjugated Streptavidin (1:1000 dilution) in FACS buffer and incubated on ice for 30 min. [0256] 10. The cells were washed twice with FACS buffer. [0257] 11. The cells were brought up to 300 μl in FACS buffer. [0258] 12. 10,000 cells were read for each sample by BD Accuri-C6. [0259] 13. The resulting readout were analyzed by FlowJo to get the mean fluorescent intensity (MFI).

[2] = molecular target: B2; test: flow cytometry, binding to CHO-cIL-4Rα cells
[3] = molecular target: B3; test: FACS, biotinylated canine IL-4 on CHO cells expressing canine IL-4Rα
[4] = molecular target: B2; test: flow cytometry, cell-based CHO-cIL-4Rα binding assay

IC50 [1]: 1.7 nM and 1 nM
EC50 [2]: 1.2 nM
B1: mouse anti-canine IL-4Rα monoclonal antibody 11H2 (antibody, V domains shown)
VH: DVKLVESGGGLVQPGGSLKLSCAASGFTFSDYYMYWVRQTPEKRLEWVAYVSSGGGSIYYPDTVKGRFTISRDNAKNTLYLQMSRLKSEDTAMYYCARHGSPFGSSRGAWFAYWGQGTLVTVSA
VL: DIQMTQSPASLSASVGETVTITCRASENIYSYLAWYQQKQGKSPQLLVYNAKTLAEGVPSRFSGSGSGTQFSLKINSLQPEDFGNYYCQHYDGFPFTFGGGTKLELK
notes: Hybridoma-derived mouse antibody; also called mAb 11H2

Binder: B2
binding result [3]: binds

Binder: B3
EC50 [4]: 25 nM
